Where two headings read alike, the source gives them in different places.

Assay [1] has as its target T1, canine OX40L, full length membrane form, expressed on HEK293 cells (canine).
T1 sequence: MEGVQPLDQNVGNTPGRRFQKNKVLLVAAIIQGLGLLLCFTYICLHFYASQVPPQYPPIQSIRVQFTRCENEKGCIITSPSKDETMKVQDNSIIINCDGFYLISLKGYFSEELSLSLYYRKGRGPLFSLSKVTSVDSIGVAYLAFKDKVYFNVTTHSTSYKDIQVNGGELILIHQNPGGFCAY
In words: flow cytometry.

The target is the same in assay [2]. In words: flow cytometry, OX40L HEK minus WT HEK. Background: In flow cytometry, cells or beads pass a laser one at a time.
For assay [3] the target is unchanged. In words: cell-based or functional assay.
Assay [4] concerns the target T2, recombinant canine OX40L ECD-TNCc-HIS protein (canine).
T2 construct: also called Trimeric OX40L probe (HIS tag); trimeric canine OX40L
T2 chain: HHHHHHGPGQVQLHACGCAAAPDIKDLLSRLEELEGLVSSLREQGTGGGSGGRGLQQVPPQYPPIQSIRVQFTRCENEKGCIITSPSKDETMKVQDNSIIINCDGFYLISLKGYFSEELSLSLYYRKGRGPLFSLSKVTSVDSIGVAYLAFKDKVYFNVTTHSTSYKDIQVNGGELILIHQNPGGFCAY
In words: SPR KD1, bivalent analyte model. The method in brief:
(§1)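 Purified antigen amine-coupled at low density to a CM5 chip; candidate antibodies injected as analyte over a concentration range. Kinetic curves fitted with a bivalent analyte model to give functional affinity and dissociation rates.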

Assay [5] concerns the target T2, recombinant canine OX40L ECD-TNCc-HIS …. In words: SPR Koff (kd2). The method in brief:
as §1

Assay [6] deals with T3, canine OX40L, full length membrane form, expressed on HEK293 cells (canine).
T3 chain: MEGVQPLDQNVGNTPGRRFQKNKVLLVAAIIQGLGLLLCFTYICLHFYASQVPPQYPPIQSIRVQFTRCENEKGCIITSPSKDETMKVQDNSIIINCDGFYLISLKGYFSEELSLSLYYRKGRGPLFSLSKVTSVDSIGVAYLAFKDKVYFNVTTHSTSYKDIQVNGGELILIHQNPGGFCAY
In words: cell-based or functional assay.

Assay [7] addresses T3, canine OX40L, full length membrane …. Description: flow cytometry, OX40L HEK minus WT HEK. The gist of the method:
(§2)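 CHO supernatants at 1, 5 or 10 μg/ml in PBS/3% FBS incubated 30′ on ice with cells surface-expressing canine OX40L. Bound antibody detected with fluorescent anti-canine Fc secondary (1:1000, 30 min, dark) and measured by flow cytometry, with parental WT HEK signal subtracted where stated.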

Assay [8] addresses T2, recombinant canine OX40L ECD-TNCc-HIS …. In words: SPR Koff (kd1). The gist of the method: as §1
Assay [9] has as its target T3, canine OX40L, full length membrane …. In words: flow cytometry. The gist of the method:
as §2

neg CTR: in assay [1], the GEO mean OX40L expressing HEK is 19600. The GEO mean difference in [2] was -4380.

B1: PMX106 (antibody, V domains shown)
VH: EVQLVESGGDLVKPGGSLRLSCVASGFTFSSYHMSWVRQAPGKGLQWVAYINSGGSSTSYADAVKGRFTISRDNAKNTLYLQMNSLRAEDTAVYYCAGFIWTHFDYWGQGTLVTVSS
VL: DIVMTQTPPSLSVSPRETASISCKASQSLLHSDGNTYLDWYLQKPGQSPQLLIYLVSNRFTGVSDRFSGSGSGTDFTLRISRVEANDTGVYYCGQGTQLWTFGAGTKVELK
For the molecule B1, in [3], the % Signal Inhibition Average is -17.2%, the % Signal Inhibition Rep1 was -9.89%, the % Signal Inhibition Rep2 was -4.12% and the % Signal Inhibition Rep3 is -37.6%. The molecule further yielded a GEO mean OX40L expressing HEK in assay [1] of 7760. The same molecule came in with a GEO mean difference in assay [2] of 4100.

B2: PMX043 (antibody)
heavy: EVQLVESGGDLVKPEGSLRLSCVVSGFTFSSYDMSWVRQAPGKGLQWVAYITNDGRYTSYTDAVKGRFTISRDNAKNTLYLQMNSLRTEDTAIYYCAKHGSSWSRGRFAMDYWGQGTSLFVSSASTTAPSVFPLAPSCGSTSGSTVALACLVSGYFPEPVTVSWNSGSLTSGVHTFPSVLQSSGLYSLSSMVTVPSSRWPSETFTCNVAHPASKTKVDKPVPKRENGRVPRPPDCPKCPAPESLGGPSVFIFPPKPKDTLLIARTPEVTCVVVDLGREDPEVQISWFVDGKQMQTAKTQPREEQFNGTYRVVSVLPIGHQDWLKGKQFTCKVNHIGLPSPIERTISKARGQAHQPSVYVLPPSREELSKNTVSLTCLIKDFFPPDIDVEWQSNGQQEPESKYRTTPPQLDEDGSYFLYSKLSVDKSRWQRGDTFICAVMHEALHNHYTQKSLSHSPGK
VL: SYVLTQLPSKNVTLNQPAHITCGGDSIGTKSVHWYQQKLGQAPVLIIFYDSSRPTGIPERFSGANSGNTATLTISGALAEDEADYYCQVWDSNASVFGGGTHLTVL
notes: also called PMX43
One may read the koff as a measure of how fast the partners let go of each other. In the case of B2, the Kd in assay [4] amounted to 17 nM. Besides, the dissociation rate constant (koff) in [5] was 0.0022 s⁻¹. Moreover, in assay [6], the “% Signal Inhibition Average” value was 80.8%, the “% Signal Inhibition Rep1” value is 69.2%, the “% Signal Inhibition Rep2” value worked out at 77.3% and the “% Signal Inhibition Rep3” value amounted to 96.1%. This molecule also came in with a GEO mean difference in [7] of 1.25e+06. The dissociation rate constant (koff) in assay [8] came to 0.00249 s⁻¹. Besides, in [9], the “GEO mean OX40L expressing HEK” value turned out to be 1.28e+06.

B3: PMX044 (antibody)
heavy: EVQLVESGGDPVKPEGSQRLSCVVSGFTFSSYDMSWVRQAPGKGLQWVAYITSDGRSTSYTDAVKGRFTISRDNARNTLFLQMNSLRTEDTAVYYCARHSSSWSRGRFGMDYWGHGTSLFVSSASTTAPSVFPLAPSCGSTSGSTVALACLVSGYFPEPVTVSWNSGSLTSGVHTFPSVLQSSGLYSLSSMVTVPSSRWPSETFTCNVAHPASKTKVDKPVPKRENGRVPRPPDCPKCPAPESLGGPSVFIFPPKPKDTLLIARTPEVTCVVVDLGREDPEVQISWFVDGKQMQTAKTQPREEQFNGTYRVVSVLPIGHQDWLKGKQFTCKVNHIGLPSPIERTISKARGQAHQPSVYVLPPSREELSKNTVSLTCLIKDFFPPDIDVEWQSNGQQEPESKYRTTPPQLDEDGSYFLYSKLSVDKSRWQRGDTFICAVMHEALHNHYTQKSLSHSPGK
VL: SYVLTQLPSKNVTLKQPAHITCGGDNIGSKSVHWYQQKLGQAPVLIIYYDSSRPTGIPERFSGANSGNTATLTISGALAEDEADYYCQVWDSSAGVFGGGTHLTVL
notes: also called PMX44
For the molecule B3, in assay [4], the Kd is 8.23 nM. Further, the koff in [5] is 0.0598 s⁻¹. Also, in assay [6], the “% Signal Inhibition Average” value is 75.1%, the “% Signal Inhibition Rep1” value worked out at 75.7%, the “% Signal Inhibition Rep2” value is 66% and the “% Signal Inhibition Rep3” value stood at 83.6%. For the same molecule, the GEO mean difference in assay [7] stood at 1.5e+06. Moreover, in assay [8], the koff is 0.000171 s⁻¹. Moreover, the “GEO mean OX40L expressing HEK” value in assay [9] stood at 1.53e+06.

B4: PMX046 (antibody)
heavy: EVQLVESGGDLVKPEGSLRLSCVVAGFTFNSYDMSWVRQAPGKGLQWVAYITSDGRFTSYTDAVKGRFTISRDNAKNTLYLQMSSLRTEDTAVYYCARHSSSWYRGRFGMDFWGHGTSLFVSSASTTAPSVFPLAPSCGSTSGSTVALACLVSGYFPEPVTVSWNSGSLTSGVHTFPSVLQSSGLYSLSSMVTVPSSRWPSETFTCNVAHPASKTKVDKPVPKRENGRVPRPPDCPKCPAPESLGGPSVFIFPPKPKDTLLIARTPEVTCVVVDLGREDPEVQISWFVDGKQMQTAKTQPREEQFNGTYRVVSVLPIGHQDWLKGKQFTCKVNHIGLPSPIERTISKARGQAHQPSVYVLPPSREELSKNTVSLTCLIKDFFPPDIDVEWQSNGQQEPESKYRTTPPQLDEDGSYFLYSKLSVDKSRWQRGDTFICAVMHEALHNHYTQKSLSHSPGK
VL: SYVLTQLPSKNVTLKQPAHITCGGDNIGSKSVHWYQQKLGQAPILIIYYDSSRPTGIPERFSGANSGNTATLTISGALAEDEADYYCQVWDSSASVFGGGTHLTVL
notes: also called PMX46
For the molecule B4, the Kd in assay [4] is 40.4 nM. Further, the off-rate constant (koff) in assay [5] is 2.02e-05 s⁻¹. In assay [6], the “% Signal Inhibition Average” value is 84.8%, the “% Signal Inhibition Rep1” value is 84.8%, the “% Signal Inhibition Rep2” value came to 69.5% and the “% Signal Inhibition Rep3” value was determined as 100%. The GEO mean difference in [7] came out at 1.22e+06. Moreover, the off-rate (koff) in assay [8] was found to be 0.00101 s⁻¹. For the same molecule, the “GEO mean OX40L expressing HEK” value in [9] came to 1.25e+06.

The values above are taken from patent US20250340659A1 (PETMEDIX, published 2025).
